Data taken from article PMC12401179, “Biophysical characterization and ion transport with cell‐based and proteoliposome reconstitution assays of invertebrate K^+‐Cl^− cotransporters” (FEBS Open Bio, 2025).
pIC50: −log10 of the molar value.

Experiments:
[1] = target: T1, DmKCC (Drosophila melanogaster, UniProt Q7KVH5); experiment: K+ influx into proteoliposomes, fluorescent K+ probe (ION Potassium Green-2 TMA+); assay type: biochemical
T1 construct: gene kcc; full-length cDNA, N-terminal 8xHis and FLAG tags (no cleavage stated), Sf9 baculovirus expression, DDM/CHS Ni-NTA purified, reconstituted in azolectin proteoliposomes
T1 sequence (Q7KVH5 1-1028): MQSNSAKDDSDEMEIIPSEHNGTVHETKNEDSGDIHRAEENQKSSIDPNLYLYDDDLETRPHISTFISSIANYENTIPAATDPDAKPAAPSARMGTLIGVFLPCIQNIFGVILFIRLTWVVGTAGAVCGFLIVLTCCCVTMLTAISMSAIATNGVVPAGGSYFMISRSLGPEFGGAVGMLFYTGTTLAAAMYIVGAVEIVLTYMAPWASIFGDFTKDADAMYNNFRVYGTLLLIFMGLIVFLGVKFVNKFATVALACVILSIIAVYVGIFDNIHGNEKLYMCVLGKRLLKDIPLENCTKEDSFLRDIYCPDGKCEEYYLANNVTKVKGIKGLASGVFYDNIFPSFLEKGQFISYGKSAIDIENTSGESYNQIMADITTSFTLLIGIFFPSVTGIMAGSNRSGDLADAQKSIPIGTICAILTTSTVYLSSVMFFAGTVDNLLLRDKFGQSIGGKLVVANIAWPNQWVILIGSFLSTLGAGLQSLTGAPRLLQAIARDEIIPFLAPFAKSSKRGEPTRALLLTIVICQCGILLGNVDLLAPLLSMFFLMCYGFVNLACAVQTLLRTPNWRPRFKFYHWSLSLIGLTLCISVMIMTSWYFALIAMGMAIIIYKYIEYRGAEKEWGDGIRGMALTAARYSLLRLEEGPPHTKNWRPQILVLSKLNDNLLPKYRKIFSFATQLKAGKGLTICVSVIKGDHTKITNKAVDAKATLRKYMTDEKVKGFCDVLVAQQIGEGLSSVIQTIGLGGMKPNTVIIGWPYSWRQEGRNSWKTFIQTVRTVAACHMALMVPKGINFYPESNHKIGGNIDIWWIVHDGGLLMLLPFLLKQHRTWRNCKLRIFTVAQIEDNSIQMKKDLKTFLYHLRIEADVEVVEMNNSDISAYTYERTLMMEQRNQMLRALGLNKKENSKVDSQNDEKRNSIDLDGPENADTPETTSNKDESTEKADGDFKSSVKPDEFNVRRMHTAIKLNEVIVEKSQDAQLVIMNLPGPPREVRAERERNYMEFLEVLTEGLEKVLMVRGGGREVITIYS

[2] = target: Drosophila melanogaster K+-Cl- cotransporter (DmKCC) variant B (Drosophila melanogaster); experiment: SEC; Superdex 200 10/300 gel filtration in 20 mM HEPES pH 7.4, 150 mM NaCl, 50 mM KCl, 0.015% DDM, 0.003% CHS, 5% glycerol; elution profile compared with that of HvKCC, whose dimer was verified by SEC-MALLS
[3] = target: Hydra vulgaris K+-Cl- cotransporter (HvKCC) (Hydra vulgaris); experiment: SEC-MALS; SEC-MALLS; protein at 1.0 mg/mL on Superdex 200 10/300 in 20 mM HEPES pH 7.4, 150 mM NaCl, 50 mM KCl, 0.015% DDM, 0.003% CHS, 5% glycerol; protein conjugate analysis (ASTRA 6); single measurement

`O=S(=O)(O)c1cc(N=C=S)ccc1C=Cc1ccc(N=C=S)cc1S(=O)(=O)O` [DIDS, 4,4′‐diisothiocyano‐2,2′‐stilbenedisulfonic acid] showed a pIC50 [1] of 7.60.

Compound “Drosophila melanogaster K+-Cl- cotransporter (DmKCC) variant B (natural protein)” has a stoichiometry N [2] of 2.

In the case of “Hydra vulgaris K+-Cl- cotransporter (HvKCC) (natural protein)”, the stoichiometry N [3] was 2.
